The source of these data is US20250018014A1, “METHOD FOR TREATING AND/OR PREVENTING REGNASE-1-RELATED DISEASE” (OSAKA UNIVERSITY, priority 2018, published 2025).

Assay [1] relates to appearance of non-phosphorylated Regnase-1 in MEF. Nature of the assay: Immunoblot analysis of Regnase-1 in MEFs during the recovery phase after IL-17A stimulation. The assay is classed as cell-based, mouse. The settings on record: after IL-17A (50 ng/ml) one hour; cycloheximide and okadaic acid (0.5 μM). As for the experimental part: Total mRNA was prepared from cells treated with doxycycline for 0 to 4 hours, and then subjected to Northern blotting using [^32P] labelled probes. […] Cells were treated with IL-17A (50 ng/ml) for one hour, and subsequently incubated in a medium with no additives (control), a medium containing cycloheximide (100 μM), or a medium containing both cycloheximide and okadaic acid (0.5 μM) for 0 to 240 minutes. […] The qPCR data (A, B, and E) were collected from four independent experiments. The error bars represent mean±SEM. ***P<0.005.
Next, the present inventors investigated the mechanism of target mRNA suppression in Regnase-1AA/AA cells. As described above, suppression of target mRNA is more enhanced at later stages of IL-17A stimulation. The present inventors used immunoblot analysis of phosphorylated and non-phosphorylated Regnase-1 during the recovery phase after the completion of IL-17A stimulation. […] The increase in the amount of non-phosphorylated Regnase-1 protein was enhanced much more strongly in Regnase-1AA/AA MEF than in wild type cells.
(In general: In western blotting, separated proteins are transferred to a membrane and probed.)

Assay [2] deals with IL-6 mRNA stability in Regnase-1AA/AA MEF. Kind of assay: qPCR analysis of IL-6 mRNA levels in Regnase-1AA/AA MEFs after TNF-α and IL-17A, with ActD. The conditions noted are these: ActD and okadaic acid (0.5 μM). The assay is classed as cell-based, mouse. On the technique in general: Real-time PCR tracks product formation cycle by cycle.
Assay [3] concerns Regnase-1 phosphorylation upon IL-17A stimulation in MEF. Kind of assay: Immunoblot analysis of Regnase-1 in wild-type MEFs stimulated with IL-17 in the presence of BX795. The conditions noted are these: BX795 (50 μM). It is filed as cell-based, mouse. From the text:
The two arrows indicate the phosphorylated form (upper) and unphosphorylated form (lower) of Regnase-1.
To identify the kinase responsible for Regnase-1 phosphorylation in the IL-17A signaling pathway, the inventors investigated a series of MEFs lacking TBK1, IKKi, TBK1/IKKi, Act1, IKKa/IKKβ, or IRAK1/IRAK2. […] To investigate whether TBK1 and IKKi directly phosphorylate Regnase-1, the present inventors prepared recombinant Regnase-1 purified from a MEF cell line stably expressing FLAG-tagged Regnase-1. Phosphorylation of recombinant Regnase-1 by recombinant TBK1 and/or IKKi under in vitro conditions was detected as an electrophoretic mobility shift pattern by immunoblotting and ^32P autoradiography (FIG. 12-2D). […] The phosphorylation pattern of Regnase-1 by IRAK appeared to be similar to that by TBK1 and IKKi, but Regnase-1 phosphorylation occurred in IRAK1/IRAK2 double-deficient MEF (FIG. 12-2E). In contrast, Regnase-1 phosphorylation in response to IL-1β occurred in TBK1/IKKi double-deficient MEF (FIG. 12-3J).

For assay [4], the target named is T1, Regnase-1 phosphorylation by IKKβ (Homo sapiens, UniProt Q5D1E8).
T1 construct: GST (N, cleaved yes); made in house; host or cells: Expi293 cells
T1 sequence (Q5D1E8 1-599): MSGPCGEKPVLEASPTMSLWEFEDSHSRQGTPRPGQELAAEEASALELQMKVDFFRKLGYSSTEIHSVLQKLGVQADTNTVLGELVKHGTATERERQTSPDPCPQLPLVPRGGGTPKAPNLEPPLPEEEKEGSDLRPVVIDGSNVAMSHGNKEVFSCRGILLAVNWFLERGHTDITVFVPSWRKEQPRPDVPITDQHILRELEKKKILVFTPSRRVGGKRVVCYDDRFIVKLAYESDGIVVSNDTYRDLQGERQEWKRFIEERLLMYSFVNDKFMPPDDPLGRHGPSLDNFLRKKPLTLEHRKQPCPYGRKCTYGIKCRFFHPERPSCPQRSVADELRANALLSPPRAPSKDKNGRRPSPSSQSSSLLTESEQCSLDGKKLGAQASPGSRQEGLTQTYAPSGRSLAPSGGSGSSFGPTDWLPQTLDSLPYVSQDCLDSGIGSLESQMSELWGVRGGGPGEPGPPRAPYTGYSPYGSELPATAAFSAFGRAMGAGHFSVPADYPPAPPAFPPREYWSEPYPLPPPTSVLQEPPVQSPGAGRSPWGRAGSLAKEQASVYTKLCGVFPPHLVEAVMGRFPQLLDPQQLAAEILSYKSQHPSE
Kind of assay: Inhibitory activity of anti-Regnase-1 antibodies against Regnase-1 phosphorylation by IKKβ (Phos-tag gel, western blotting). The settings on record: antibody at final concentrations of 16.7 μg/mL and 5.0 μg/mL; relative to Control group. The assay is classed as biochemical. As for the experimental part: To a solution (ATP buffer) containing Kinase Assay Buffer III (manufactured by SignalChem) supplemented with 2 mM DTT, 100 μM sodium vanadate, 2 mM manganese chloride, and 15 μM ATP, dephosphorylated Regnase-1 was mixed at 150 nM. Four microliters of this solution and 4 μL of HEPES Buffered Saline containing 50 μg/mL or 15 μg/mL of anti-Regnase-1 antibody were mixed, and this was allowed to react for one hour. This reaction solution was mixed with 4 μL of ATP buffer containing 150 nM of each kinase (IKKβ or TBK1), and further reacted for one hour. After the reaction, 4 μL of 4× Laemmli Sample buffer (manufactured by Bio-Rad) was added and this mixture was incubated at 95° C. for five minutes for protein denaturation treatment. This sample was ice-cooled for three minutes, and 10 μL of it was added to SuperSep Phos-tag 7.5% 17 wells (manufactured by Wako) placed in EasySeparator (manufactured by Wako). […] Chemiluminescence was detected using ImageQuant LAS4000 mini (manufactured by GE Healthcare).
A band for phosphorylated Regnase-1 was detected due to treatment with each kinase (FIG. 33A). Band densities were measured with Image Quant-TL (manufactured by GE Healthcare). The relative value for the band density of the sample to which each compound was added was calculated, considering the band density of the kinase-added sample of the Control group, to which no compound was added, as 1. […]

For assay [5], the target named is T2, FL_Reg1 (human full-length Regnase-1) (Homo sapiens, UniProt Q5D1E8).
T2 construct: made in house; host or cells: Expi293 cells
T2 sequence (Q5D1E8 1-599): T1 sequence (Q5D1E8 1-599)
Nature of the assay: Binding of anti-non-phosphorylated Regnase-1 peptide antibodies to bead-bound full length human Regnase-1 (iQue screener). The settings on record: streptavidin-immobilized beads; histograms FIG. 32. How it is done: (§1) • Biotin-Conjugated FL_Reg1, Biotin-Conjugated Peptide • […], biotin-conjugated peptide • AFPPREYWSEPYPLPPPTC-NH2, and biotinylated BSA (Sigma, A8549) were each bound to streptavidin-immobilized beads.
(§2) These beads were mixed with each anti-Regnase-1 antibody, and they were allowed to react. Thereafter, Anti-Rabbit IgG1 Alexa488 (molecular probes, A21244) was mixed and reacted, and analysis was performed with iQue screener PLUS (intellicyt). Data was analyzed with FlowJo ver10.

Assay [6] addresses T3, Peptide 1 ([…]), partial peptide of human Regnase-1 (Homo sapiens, UniProt Q5D1E8).
T3 construct: […], biotin-conjugated peptide; made in house; host or cells: chemical synthesis
Nature of the assay: Binding of anti-non-phosphorylated Regnase-1 peptide antibodies to bead-bound Peptide 1 (iQue screener). The conditions noted are these: streptavidin-immobilized beads; histograms FIG. 32. As for the experimental part: as §1, §2

Changes are numbered by the printed parent chain. Entries after “also recorded” stand apart in the source; their conditions may differ.

On to `C=C1[C@@H](O)[C@@H]2O[C@]3(CC[C@H](/C=C/[C@@H](C)[C@@H]4CC(C)=C[C@@]5(O[C@H](C[C@@](C)(O)C(=O)O)CC[C@H]5O)O4)O3)CC[C@H]2O[C@@H]1[C@@H](O)C[C@H](C)[C@H]1O[C@@]2(CCCCO2)CC[C@H]1C` [okadaic acid], for which the “appearance of non-phosphorylated Regnase-1 during the recovery phase” value in assay [1] is reported as “non-phosphorylated Regnase-1 did not appear”. Further, the “IL-6 mRNA stability / half-life” value in assay [2] was “IL-6 mRNA stability was also enhanced; also recorded: dramatic increase in the half-life of IL-6 mRNA”.

As for `O=C(NCCCNc1nc(Nc2cccc(NC(=O)N3CCCC3)c2)ncc1I)c1cccs1` [BX795], in assay [3], the “Regnase-1 phosphorylation upon IL-17A stimulation” value was “inhibited Regnase-1 phosphorylation”.

B1: REA0023: anti-Regnase-1 antibody; heavy chain SEQ ID NO: 20, light chain SEQ ID NO: 21 (antibody)
heavy: QSLEESGGDLVKPGASLTLTCTDAGFSFSGVYWMHWVRQAPGKGLEWIACINAGSSGSTYYASWAKGRFTISKPSSTTVTLQMTSLTVADTATYFCARSFTLWGPGTLVTVSSGQPKAPSVFPLAPCCGDTPSSTVTLGCLVKGYLPEPVTVTWNSGTLTNGVRTFPSVRQSSGLYSLSSVVSVTSSSQPVTCNVAHPATNTKVDKTVAPSTCSKPTCPPPELLGGPSVFIFPPKPKDTLMISRTPEVTCVVVDVSQDDPEVQFTWYINNEQVRTARPPLREQQFNSTIRVVSTLPITHQDWLRGKEFKCKVHNKALPAPIEKTISKARGQPLEPKVYTMGPPREELSSRSVSLTCMINGFYPSDISVEWEKNGKAEDNYKTTPAVLDSDGSYFLYNKLSVPTSEWQRGDVFTCSVMHEALHNHYTQKSISRSPGK
light: AVVTQTPSSVSAAVGGTVTIKCQSSQSVGNNNYLAWFQQKPGQPPKLLIYSASTLASGVPSRFSGSGSGTQFTLTISGVQCDDAATYYCLGGYDGDGEAFYVFGGGTEVVVKGDPVAPTVLIFPPAADQVATGTVTIVCVANKYFPDVTVTWEVDGTTQTTGIENSKTPQNSADCTYNLSSTLTLTSTQYNSHKEYTCKVTQGTTSVVQSFNRGDC
On to B1, for which, in assay [4], the “density of the phosphorylated Regnase-1 band in IKKβ treatment” value is “decreased”. Also, the “binding to FL_Reg1 compared with biotinylated BSA” value in assay [5] was “bound more strongly”. The “binding to Peptide 1 compared with biotinylated BSA” value in assay [6] is listed as “bound more strongly”.

B2: REA0027: anti-Regnase-1 antibody; heavy chain SEQ ID NO: 22, light chain SEQ ID NO: 23 (antibody)
heavy: B1 heavy with D23A, A24S, S27G, G30S, V31S, G57T, S58K, R98W, T101N
light: B1 light with Y33W
Take B2: the “density of the phosphorylated Regnase-1 band in IKKβ treatment” value in assay [4] is “decreased”. Moreover, the “binding to FL_Reg1 compared with biotinylated BSA” value in assay [5] was “bound more strongly”. For the same molecule, the “binding to Peptide 1 compared with biotinylated BSA” value in assay [6] is reported as “bound more strongly”.
